# Data from patent US20210371536A1 (SEOUL NATIONAL UNIVERSITY R AND DB FOUNDATION, published 2021).
# B1: PRb-CC01 x cotinine scFv-Cκ-scFv fusion protein (bispecific antibody) (bispecific antibody)
# chain: LTQPSSVSANLGGTVKITCSGGGSYYGWYQQKSPGSAPVTLIYYNDKRPSDIPSRFSGSKSGSTGTLTITGVQAEDEAVYFCGAWDNSAGYAGFGAGTTLTVLGQSSRSSGGGGSSGGGGSAVTLDESGGGLQTPGGALSLVCKGSGFTFSSYNMGWVRQAPGKGLEFVAGISAADNSTAYGAAVDGRATISRDNGQSTVRLQLNNLRAEDTATYFCIRGGGSIDAWGHGTEVIVSSGGGGSGGGGSGGGGSRTVAAPSVFIFPPSDEQLKSGTASVVCLLNNFYPREAKVQWKVDNALQSGNSQESVTEQDSKDSTYSLSSTLTLSKADYEKHKVYACEVTHQGLSLPVTKSFNRGESGGGGSGGGGSGGGGSDIQMTQSPSSLSASVGDRVTITCQSSQSPYSNEWLSWYQQKPGKAPKLLIYRISTLASGVPSRFSGSRSGTDFTLTISSLQPEDFATYYCAGGYNFGLFLFGQGTKVEIKGQSSRSSGGGGSSGGGGSEVQLVESGGGLVQPGGSLRLSCAASGHLRRRDWMNWVRQAPGKGLEWVAAIGRSGDTYYATWAKGRFTISADTSKNTAYLQMNSLRAEDTAVYYCSRIPYFGWNNGDIWGQGTLVTVSS
# B2: PRb-CC03 x cotinine scFv-Cκ-scFv fusion protein (bispecific antibody) (bispecific antibody)
# chain: LTQPSSVSANPGETVKITCSGGTYNYGWYQQKSPGSAPVTVIYWNDKRPSDIPSRFSGSKSGSTGTLTITGVQAEDEAVYYCGSSDSSGLIFGAGTTLTVLGQSSRSSGGGGSSGGGGSAVTLDESGGGLQTPGGTLSLVCKASGFTFSSYAMGWVRQAPGKGLEWVAGIDTAGGTAYGPAVKGRATISRDNGQSTVRLQLNNLRAEDTATYYCTRSSYIDTWGHGTEVIVSSTSGGGGSGGGGSGGGGSRTVAAPSVFIFPPSDEQLKSGTASVVCLLNNFYPREAKVQWKVDNALQSGNSQESVTEQDSKDSTYSLSSTLTLSKADYEKHKVYACEVTHQGLSLPVTKSFNRGESGGGGSGGGGSGGGGSDIQMTQSPSSLSASVGDRVTITCQSSQSPYSNEWLSWYQQKPGKAPKLLIYRISTLASGVPSRFSGSRSGTDFTLTISSLQPEDFATYYCAGGYNFGLFLFGQGTKVEIKGQSSRSSGGGGSSGGGGSEVQLVESGGGLVQPGGSLRLSCAASGHLRRRDWMNWVRQAPGKGLEWVAAIGRSGDTYYATWAKGRFTISADTSKNTAYLQMNSLRAEDTAVYYCSRIPYFGWNNGDIWGQGTLVTVSS
# B3: PRb-CC02 x cotinine scFv-Cκ-scFv fusion protein (bispecific antibody) (bispecific antibody)
# chain: LTQPSSVSANPGETVKITCSGGGGSYGWYQQKSPGSAPVTVIYYNDKRPSDIPSRFSGSKSGSTGTLTITGVQAEDEAVYFCGSYNSSDSLFGAGTTLTVLGQSSRSSGGGGSSGGGGSAVTLDESGGGLQTPGGALSLVCKASGFTFSSYGMFWVRQAPGKGLEWVAGIDTGSGTNYGSAVKGRATISRDNGQSTVRLQLNNLRAEDTGTYFCTRGYAGTIDAWGHGTEVIVSSTSGGGGSGGGGSGGGGSRTVAAPSVFIFPPSDEQLKSGTASVVCLLNNFYPREAKVQWKVDNALQSGNSQESVTEQDSKDSTYSLSSTLTLSKADYEKHKVYACEVTHQGLSLPVTKSFNRGESGGGGSGGGGSGGGGSDIQMTQSPSSLSASVGDRVTITCQSSQSPYSNEWLSWYQQKPGKAPKLLIYRISTLASGVPSRFSGSRSGTDFTLTISSLQPEDFATYYCAGGYNFGLFLFGQGTKVEIKGQSSRSSGGGGSSGGGGSEVQLVESGGGLVQPGGSLRLSCAASGHLRRRDWMNWVRQAPGKGLEWVAAIGRSGDTYYATWAKGRFTISADTSKNTAYLQMNSLRAEDTAVYYCSRIPYFGWNNGDIWGQGTLVTVSS
# B4: PRb-CN26 x cotinine scFv-Cκ-scFv fusion protein (bispecific antibody) (bispecific antibody)
# chain: LTQPSSVSANPGETVKITCSGGGSYAGSYYYGWYQQKSPGSAPVTVIYDNTNRPSNIPSRFSGSLSGSTDTLTITGVQAEDEAVYFCGGYDGISDTGIFGAGTTLTVLGQSSRSSGGGGSSGGGGSAVTLDESGGGLQTPGGGLSLVCKASGFTFSDRGIHWVRQAPGKGLEWVAGIGNTGSYTAYAPAVKGRATISRDNGQSTVRLQLNNLRAEDTATYYCAKRGFMDAGGIDAWGHGTEVIVSSTSGGGGSGGGGSGGGGSRTVAAPSVFIFPPSDEQLKSGTASVVCLLNNFYPREAKVQWKVDNALQSGNSQESVTEQDSKDSTYSLSSTLTLSKADYEKHKVYACEVTHQGLSLPVTKSFNRGESGGGGSGGGGSGGGGSDIQMTQSPSSLSASVGDRVTITCQSSQSPYSNEWLSWYQQKPGKAPKLLIYRISTLASGVPSRFSGSRSGTDFTLTISSLQPEDFATYYCAGGYNFGLFLFGQGTKVEIKGQSSRSSGGGGSSGGGGSEVQLVESGGGLVQPGGSLRLSCAASGHLRRRDWMNWVRQAPGKGLEWVAAIGRSGDTYYATWAKGRFTISADTSKNTAYLQMNSLRAEDTAVYYCSRIPYFGWNNGDIWGQGTLVTVSS
# B5: PRb-CN16 x cotinine scFv-Cκ-scFv fusion protein (bispecific antibody) (bispecific antibody)
# chain: LTQPSSVSANPGETVKITCSGSSSSYGWYQQKSPGSAPVTLIYENNQRPSNIPSRFSGSKSGSTGTLTITGVQAEDEAVYYCGNADRSNSAGTFGAGTTLTVLGQSSRSSGGGGSSGGGGSAVTLDESGGGLQTPGTALSLVCKASGFTFSSFNMAWVRQAPGKGLEFVGEISNTAGSTFYAPAVKGRATISRDNGQSTVRLQLNNLRAEDTAIYYCAKAAGTCYSHSCTGYIDAWGHGTEVIVSSTSGGGGSGGGGSGGGGSRTVAAPSVFIFPPSDEQLKSGTASVVCLLNNFYPREAKVQWKVDNALQSGNSQESVTEQDSKDSTYSLSSTLTLSKADYEKHKVYACEVTHQGLSLPVTKSFNRGESGGGGSGGGGSGGGGSDIQMTQSPSSLSASVGDRVTITCQSSQSPYSNEWLSWYQQKPGKAPKLLIYRISTLASGVPSRFSGSRSGTDFTLTISSLQPEDFATYYCAGGYNFGLFLFGQGTKVEIKGQSSRSSGGGGSSGGGGSEVQLVESGGGLVQPGGSLRLSCAASGHLRRRDWMNWVRQAPGKGLEWVAAIGRSGDTYYATWAKGRFTISADTSKNTAYLQMNSLRAEDTAVYYCSRIPYFGWNNGDIWGQGTLVTVSS
# notes: also called anti-hPDGFR-β x cotinine scFv-Cκ-scFv
# B6: PRb-CN01 x cotinine scFv-Cκ-scFv fusion protein (bispecific antibody) (bispecific antibody)
# chain: LTQPSSVSANPGETVKITCSGGSGSYGWFQQKSPGSAPVTVIYSNNQRPSDIPSRFSGSKSGSTNTLTITGVQAEDEAIYYCGTRDSSYVGIFGAGTTLTVLGQSSRSSGGGGSSGGGGSAVTLDESGGGLQTPGGALSLVCKASGFTFSDRAMHWVRQAPGKGLEWVGLITNTGGSTNYGAAVKGRATISRDNGQSTVRLQLNNLRAEDTGTYYCTRGVGSWAHGGRIDAWGHGTEVIVSSGGGGSGGGGSGGGGSRTVAAPSVFIFPPSDEQLKSGTASVVCLLNNFYPREAKVQWKVDNALQSGNSQESVTEQDSKDSTYSLSSTLTLSKADYEKHKVYACEVTHQGLSLPVTKSFNRGESGGGGSGGGGSGGGGSDIQMTQSPSSLSASVGDRVTITCQSSQSPYSNEWLSWYQQKPGKAPKLLIYRISTLASGVPSRFSGSRSGTDFTLTISSLQPEDFATYYCAGGYNFGLFLFGQGTKVEIKGQSSRSSGGGGSSGGGGSEVQLVESGGGLVQPGGSLRLSCAASGHLRRRDWMNWVRQAPGKGLEWVAAIGRSGDTYYATWAKGRFTISADTSKNTAYLQMNSLRAEDTAVYYCSRIPYFGWNNGDIWGQGTLVTVSS
# Legend:
# [1] = target: mPDGFR-β on NIH3T3 cells (mouse, UniProt P05622 32-1098); assay: cell-based or functional assay
# Sequence of mPDGFR-β on NIH3T3 cells (P05622 32-1098): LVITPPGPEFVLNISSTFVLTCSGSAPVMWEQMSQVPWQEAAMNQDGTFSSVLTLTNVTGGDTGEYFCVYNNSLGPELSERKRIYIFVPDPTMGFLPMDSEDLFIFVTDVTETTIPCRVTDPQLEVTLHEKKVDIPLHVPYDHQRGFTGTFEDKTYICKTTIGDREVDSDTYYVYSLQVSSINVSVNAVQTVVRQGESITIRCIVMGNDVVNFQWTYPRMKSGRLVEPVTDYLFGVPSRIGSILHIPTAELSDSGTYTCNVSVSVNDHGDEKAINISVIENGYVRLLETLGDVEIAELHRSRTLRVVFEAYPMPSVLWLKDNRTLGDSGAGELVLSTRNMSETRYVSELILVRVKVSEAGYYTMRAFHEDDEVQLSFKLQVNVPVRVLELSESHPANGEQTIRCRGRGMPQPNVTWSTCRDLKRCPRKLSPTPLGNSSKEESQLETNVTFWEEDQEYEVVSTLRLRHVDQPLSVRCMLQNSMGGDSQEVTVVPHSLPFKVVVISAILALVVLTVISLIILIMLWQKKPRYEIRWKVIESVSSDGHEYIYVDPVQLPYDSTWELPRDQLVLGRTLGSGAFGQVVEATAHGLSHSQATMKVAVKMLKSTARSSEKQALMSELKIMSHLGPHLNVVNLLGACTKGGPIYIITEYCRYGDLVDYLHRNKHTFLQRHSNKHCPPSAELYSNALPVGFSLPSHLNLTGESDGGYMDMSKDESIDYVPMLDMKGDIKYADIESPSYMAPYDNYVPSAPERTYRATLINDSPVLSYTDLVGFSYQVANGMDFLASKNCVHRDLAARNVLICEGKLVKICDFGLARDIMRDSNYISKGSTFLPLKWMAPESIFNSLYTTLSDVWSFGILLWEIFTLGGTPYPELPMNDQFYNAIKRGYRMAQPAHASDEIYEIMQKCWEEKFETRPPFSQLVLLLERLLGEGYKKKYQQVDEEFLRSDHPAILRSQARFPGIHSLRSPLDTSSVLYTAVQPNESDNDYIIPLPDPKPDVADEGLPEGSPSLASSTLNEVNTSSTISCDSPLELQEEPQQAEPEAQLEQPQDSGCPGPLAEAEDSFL
# [2] = target: T1, cynomolgus monkey PDGFR-β (Fc chimera) (cynomolgus monkey); assay: cross-species ELISA on coated antigen, 100 nM bispecific, HRP-anti-human Cκ detection
# T1 construct: not shown: human Fc (hFc) and its junction to the receptor part
# T1 chain: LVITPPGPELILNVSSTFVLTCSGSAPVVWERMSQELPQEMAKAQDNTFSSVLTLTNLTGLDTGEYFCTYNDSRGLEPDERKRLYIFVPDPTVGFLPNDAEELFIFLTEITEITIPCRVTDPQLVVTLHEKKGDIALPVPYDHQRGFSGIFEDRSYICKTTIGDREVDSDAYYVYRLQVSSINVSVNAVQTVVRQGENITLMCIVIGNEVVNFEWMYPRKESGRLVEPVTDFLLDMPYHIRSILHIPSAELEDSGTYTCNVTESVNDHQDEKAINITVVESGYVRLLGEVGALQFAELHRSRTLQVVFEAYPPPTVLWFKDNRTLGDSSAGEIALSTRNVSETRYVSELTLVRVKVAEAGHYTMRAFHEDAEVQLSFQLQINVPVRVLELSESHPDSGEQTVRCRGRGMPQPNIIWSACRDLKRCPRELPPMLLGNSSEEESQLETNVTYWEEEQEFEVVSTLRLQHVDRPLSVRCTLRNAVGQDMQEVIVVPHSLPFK
# [3] = target: T2, Sus scrofa PDGFR-β-Fc chimera (Sus scrofa, UniProt Q6QNF3 33-530 (dog entry)); assay: as above
# T2 construct: also called Sus crowfa PDGFR-β; not shown: human Fc (hFc) and its junction to the receptor part
# T2 chain: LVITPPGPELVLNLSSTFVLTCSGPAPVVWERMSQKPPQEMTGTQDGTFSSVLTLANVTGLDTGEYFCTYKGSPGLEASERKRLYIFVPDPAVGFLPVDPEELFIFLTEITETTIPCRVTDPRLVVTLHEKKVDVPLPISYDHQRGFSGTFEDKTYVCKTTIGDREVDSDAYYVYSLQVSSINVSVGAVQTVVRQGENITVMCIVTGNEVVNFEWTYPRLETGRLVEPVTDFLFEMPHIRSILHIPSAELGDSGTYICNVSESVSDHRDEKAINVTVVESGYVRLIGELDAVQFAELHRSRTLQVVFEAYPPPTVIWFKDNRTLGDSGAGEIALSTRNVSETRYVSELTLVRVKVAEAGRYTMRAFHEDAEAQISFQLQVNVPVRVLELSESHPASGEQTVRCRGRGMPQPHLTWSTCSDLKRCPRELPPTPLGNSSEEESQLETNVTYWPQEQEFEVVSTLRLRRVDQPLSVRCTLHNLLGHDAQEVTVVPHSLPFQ
# [4] = target: hPDGFR-β on human pericyte cells (human, UniProt P09619 33-1106); assay: cell-based or functional assay
# Sequence of hPDGFR-β on human pericyte cells (P09619 33-1106): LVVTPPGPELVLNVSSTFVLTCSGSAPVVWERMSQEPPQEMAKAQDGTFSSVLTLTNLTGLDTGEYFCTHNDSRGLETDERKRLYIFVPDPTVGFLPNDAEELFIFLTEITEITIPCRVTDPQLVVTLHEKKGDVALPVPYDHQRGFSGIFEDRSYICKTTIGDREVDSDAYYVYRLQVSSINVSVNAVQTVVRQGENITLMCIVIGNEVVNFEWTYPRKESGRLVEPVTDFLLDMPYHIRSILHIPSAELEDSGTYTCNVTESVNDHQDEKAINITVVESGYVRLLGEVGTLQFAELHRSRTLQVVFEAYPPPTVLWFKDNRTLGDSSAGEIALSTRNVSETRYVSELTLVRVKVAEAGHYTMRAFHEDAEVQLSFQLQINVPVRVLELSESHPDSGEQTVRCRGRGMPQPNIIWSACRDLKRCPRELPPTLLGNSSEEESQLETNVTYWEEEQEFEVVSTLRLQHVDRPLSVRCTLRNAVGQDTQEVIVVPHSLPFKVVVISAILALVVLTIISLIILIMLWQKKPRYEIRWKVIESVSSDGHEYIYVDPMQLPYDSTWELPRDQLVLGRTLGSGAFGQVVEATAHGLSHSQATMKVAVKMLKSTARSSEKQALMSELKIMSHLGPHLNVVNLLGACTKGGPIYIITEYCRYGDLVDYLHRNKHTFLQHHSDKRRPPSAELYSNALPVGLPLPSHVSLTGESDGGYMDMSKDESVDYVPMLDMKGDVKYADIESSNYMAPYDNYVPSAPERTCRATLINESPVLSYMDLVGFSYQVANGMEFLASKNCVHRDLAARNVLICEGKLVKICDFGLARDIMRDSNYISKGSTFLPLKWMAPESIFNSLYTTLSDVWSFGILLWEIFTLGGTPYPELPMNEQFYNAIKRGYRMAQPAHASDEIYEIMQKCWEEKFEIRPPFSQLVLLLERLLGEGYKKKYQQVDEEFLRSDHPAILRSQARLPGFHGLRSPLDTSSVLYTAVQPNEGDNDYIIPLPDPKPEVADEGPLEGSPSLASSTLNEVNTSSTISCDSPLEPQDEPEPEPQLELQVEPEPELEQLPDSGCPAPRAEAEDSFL
binder,measurement,setting,value
B1,"IC50 (nM) of relative cell viability (cellular ATP), NIH3T3 cells, bispecific complexed with cot-duo, with mPDGF-BB",[1],27.1 nM
same,"IC50 (nM) of relative cell viability (cellular ATP), NIH3T3 cells, bispecific complexed with cot-duo, without mPDGF-BB",[1],25 nM
same,"IC50 (nM) of relative cell viability (cellular ATP), NIH3T3 cells, bispecific complexed with cot-duo-cot, with mPDGF-BB",[1],67.2 nM
same,"IC50 (nM) of relative cell viability (cellular ATP), NIH3T3 cells, bispecific complexed with cot-duo-cot, without mPDGF-BB",[1],87.6 nM
B2,"IC50 (nM) of relative cell viability (cellular ATP), NIH3T3 cells, bispecific complexed with cot-duo, with mPDGF-BB",[1],20.7 nM
same,"IC50 (nM) of relative cell viability (cellular ATP), NIH3T3 cells, bispecific complexed with cot-duo, without mPDGF-BB",[1],27.3 nM
same,"IC50 (nM) of relative cell viability (cellular ATP), NIH3T3 cells, bispecific complexed with cot-duo-cot, with mPDGF-BB",[1],50.2 nM
same,"IC50 (nM) of relative cell viability (cellular ATP), NIH3T3 cells, bispecific complexed with cot-duo-cot, without mPDGF-BB",[1],67.3 nM
B3,"IC50 (nM) of relative cell viability (cellular ATP), NIH3T3 cells, bispecific complexed with cot-duo, with mPDGF-BB",[1],20.6 nM
same,"IC50 (nM) of relative cell viability (cellular ATP), NIH3T3 cells, bispecific complexed with cot-duo, without mPDGF-BB",[1],20.1 nM
same,"IC50 (nM) of relative cell viability (cellular ATP), NIH3T3 cells, bispecific complexed with cot-duo-cot, with mPDGF-BB",[1],89 nM
same,"IC50 (nM) of relative cell viability (cellular ATP), NIH3T3 cells, bispecific complexed with cot-duo-cot, without mPDGF-BB",[1],125 nM
B4,binding result,[2],binds
same,binding result,[3],binds
same,"IC50 (nM) of relative cell viability (cellular ATP), human pericyte cells, bispecific complexed with cot-duo, with hPDGF-BB",[4],0.87 nM
same,"IC50 (nM) of relative cell viability (cellular ATP), human pericyte cells, bispecific complexed with cot-duo, without hPDGF-BB",[4],0.9 nM
B5,binding result,[2],binds
same,binding result,[3],binds
same,"IC50 (nM) of relative cell viability (cellular ATP), human pericyte cells, bispecific complexed with cot-duo, with hPDGF-BB",[4],1.82 nM
same,"IC50 (nM) of relative cell viability (cellular ATP), human pericyte cells, bispecific complexed with cot-duo, without hPDGF-BB",[4],2.39 nM
B6,"IC50 (nM) of relative cell viability (cellular ATP), NIH3T3 cells, bispecific complexed with cot-duo, with mPDGF-BB",[1],9.7 nM
same,"IC50 (nM) of relative cell viability (cellular ATP), NIH3T3 cells, bispecific complexed with cot-duo, without mPDGF-BB",[1],8.3 nM
same,"IC50 (nM) of relative cell viability (cellular ATP), NIH3T3 cells, bispecific complexed with cot-duo-cot, with mPDGF-BB",[1],30.5 nM
same,"IC50 (nM) of relative cell viability (cellular ATP), NIH3T3 cells, bispecific complexed with cot-duo-cot, without mPDGF-BB",[1],20.1 nM
